Experimental data from paper PMC4951691.

Experiments:
[1] = biological target: Cryptococcus neoformans Golgi Reassembly and Stacking Protein (CnGRASP) (Cryptococcus neoformans); assay: SEC; Superdex 200 (HR 10/30), Akta purifier; hydrodynamic radius from the partition coefficient against standard proteins (calibration kit LMW/HMW); CHAPS left out of the protein preparation
[2] = biological target: Cryptococcus neoformans Golgi Reassembly and Stacking Protein (CnGRASP) (Cryptococcus neoformans); assay: dynamic light scattering; Nano-ZS, 20 °C, 25 mM Hepes/NaOH, 150 mM NaCl, 1 mM beta-mercaptoethanol, 10% glycerol, pH 7.4; mass worked out from the Rh of 3.9 nm
[3] = biological target: Cryptococcus neoformans Golgi Reassembly and Stacking Protein (CnGRASP) (Cryptococcus neoformans); assay: SEC + other: zone sedimentation in a sucrose gradient; Siegel and Monte model: Rh from SEC combined with the sedimentation coefficient (about 4.2 S) from a 10 to 35% sucrose gradient in 25 mM Hepes/NaOH, 150 mM NaCl, pH 7.4; CnGRASP less than 1 mg/mL; 100,000 g for 4 h at 4 °C

stoichiometry N [1]: 2
stoichiometry N [2]: 2
stoichiometry N [3]: 2
Substance: Cryptococcus neoformans Golgi Reassembly and Stacking Protein (CnGRASP) (natural protein)
